The target of data set [1] is T1, RAD52 FL (human, UniProt P43351 1-418).
T1 sequence: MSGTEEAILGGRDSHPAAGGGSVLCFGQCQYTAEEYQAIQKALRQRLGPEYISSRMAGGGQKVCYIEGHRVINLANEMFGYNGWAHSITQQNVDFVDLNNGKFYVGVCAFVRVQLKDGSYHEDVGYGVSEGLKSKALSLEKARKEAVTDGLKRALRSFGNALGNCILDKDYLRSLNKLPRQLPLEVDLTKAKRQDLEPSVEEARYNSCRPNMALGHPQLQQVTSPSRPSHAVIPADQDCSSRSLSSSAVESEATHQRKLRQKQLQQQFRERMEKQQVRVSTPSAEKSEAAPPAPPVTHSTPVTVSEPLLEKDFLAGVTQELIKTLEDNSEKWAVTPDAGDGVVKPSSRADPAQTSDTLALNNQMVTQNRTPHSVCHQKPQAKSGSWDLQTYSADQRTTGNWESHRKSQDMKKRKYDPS
Kind of data set: fluorescence polarization.

Data set [2] deals with the molecule itself. Kind of data set: dynamic light scattering.

TTTTTTTTTTTTTTTTTTTTTTTTTTTTTT (ssDNA) [dT30 ssDNA] gave a Kd in data set [1] of 37.2 ± 0.4 nM.

B1: Histidine-tagged human RAD52 N-terminal domain (1-212) (domain or fragment, UniProt P43351 1-212, looked up)
chain: MSGTEEAILGGRDSHPAAGGGSVLCFGQCQYTAEEYQAIQKALRQRLGPEYISSRMAGGGQKVCYIEGHRVINLANEMFGYNGWAHSITQQNVDFVDLNNGKFYVGVCAFVRVQLKDGSYHEDVGYGVSEGLKSKALSLEKARKEAVTDGLKRALRSFGNALGNCILDKDYLRSLNKLPRQLPLEVDLTKAKRQDLEPSVEEARYNSCRPNM
As to B1, the “stoichiometry N” value in data set [2] is roughly 11.

For the origin of these results see article doi:10.1101/2023.04.03.535362 (bioRxiv, 2023).
